Data published in the Immune Epitope Database (IEDB).
Values belong to the sequence of their own block, whether it stands above or below them.

Assays:
HLA-A*02:01 [1] = test: IEDB peptide-MHC binding, cellular MHC/competitive/fluorescence; filed as Kd, often an IC50 or EC50 that approximates it; ≥ and ≤ were set here for values at or beyond the usual limits of such assays; conditions: source organism: Homo sapiens
HLA-A*02:01 [2] = test: IEDB peptide-MHC binding, purified MHC/competitive/radioactivity; ≥ and ≤ were set here for values at or beyond the usual limits of such assays; conditions: source organism: Homo sapiens
HLA-B*44:02 = test: IEDB peptide-MHC binding, purified MHC/direct/fluorescence; filed as Kd, often an IC50 or EC50 that approximates it; ≥ and ≤ were set here for values at or beyond the usual limits of such assays; conditions: source organism: Giardia lamblia ATCC 50803
HLA-A*30:01 = test: as above; conditions: source organism: Giardia lamblia ATCC 50803
HLA-B*40:01 = test: as above; conditions: source organism: Giardia lamblia ATCC 50803
HLA-B*58:01 = test: as above; conditions: source organism: Giardia lamblia ATCC 50803
HLA-A*26:01 [3] = test: as above; conditions: source organism: Giardia lamblia ATCC 50803
HLA-A*01:01 = test: as above; conditions: source organism: Giardia lamblia ATCC 50803
HLA-A*24:03 = test: as above; conditions: source organism: Giardia lamblia ATCC 50803
HLA-B*15:01 [4] = test: as above; conditions: source organism: Giardia lamblia ATCC 50803
HLA-A*11:01 = test: as above; conditions: source organism: Giardia lamblia ATCC 50803
HLA-B*27:05 = test: as above; conditions: source organism: Giardia lamblia ATCC 50803
HLA-B*08:01 = test: as above; conditions: source organism: Giardia lamblia ATCC 50803
HLA-A*02:01 [5] = test: as above; conditions: source organism: Giardia lamblia ATCC 50803
HLA-A*31:01 = test: as above; conditions: source organism: Giardia lamblia ATCC 50803
HLA-A*69:01 [6] = test: as above; conditions: source organism: Giardia lamblia ATCC 50803
HLA-B*07:02 = test: as above; conditions: source organism: Giardia lamblia ATCC 50803
HLA-A*03:01 [7] = test: as above; conditions: source organism: Giardia lamblia ATCC 50803
HLA-A*02:19 = test: IEDB peptide-MHC binding, purified MHC/competitive/fluorescence; filed as Kd, often an IC50 or EC50 that approximates it; ≥ and ≤ were set here for values at or beyond the usual limits of such assays
HLA-B*39:01 = test: as above
HLA-B*46:01 = test: as above
HLA-B*15:17 = test: as above; conditions: source organism: Yersinia pestis Nepal516
HLA-A*26:01 [8] = test: as above
HLA-A*80:01 = test: as above; conditions: source organism: Yersinia pestis Nepal516
HLA-A*02:12 = test: as above
HLA-A*02:11 = test: as above
HLA-A*25:01 = test: as above; conditions: source organism: Yersinia pestis Nepal516
HLA-B*27:03 = test: as above
HLA-B*57:01 = test: as above
HLA-B*15:01 [9] = test: as above; conditions: source organism: Yersinia pestis Nepal516
HLA-A*68:02 = test: as above
HLA-B*51:01 = test: as above; conditions: source organism: Yersinia pestis Nepal516
HLA-A*02:01 [10] = test: as above; conditions: source organism: Yersinia pestis Nepal516
HLA-A*02:16 = test: as above; conditions: source organism: Yersinia pestis Nepal516
HLA-A*29:02 = test: as above
HLA-A*02:03 = test: as above; conditions: source organism: Yersinia pestis Nepal516
HLA-A*69:01 [11] = test: as above
HLA-A*03:01 [12] = test: as above
HLA-B*18:01 = test: as above
HLA-B*83:01 = test: as above
HLA-B*45:06 = test: as above
HLA-A*03:19 = test: as above; conditions: source organism: Cryptosporidium parvum Iowa II
HLA-B*27:20 = test: as above; conditions: source organism: Cryptosporidium parvum Iowa II
HLA-B*15:42 = test: as above
HLA-A*32:15 = test: as above; conditions: source organism: Entamoeba histolytica HM-1:IMSS
HLA-A*68:23 = test: as above; conditions: source organism: Entamoeba histolytica HM-1:IMSS
HLA-C*14:02 = test: as above; conditions: source organism: Entamoeba histolytica HM-1:IMSS
HLA-C*15:02 = test: IEDB peptide-MHC binding, purified MHC/direct/fluorescence; filed as Kd, often an IC50 or EC50 that approximates it; ≥ and ≤ were set here for values at or beyond the usual limits of such assays; conditions: source organism: Entamoeba histolytica HM-1:IMSS
[13] = source organism: Yersinia pestis Nepal516
[14] = source organism: Cryptosporidium parvum Iowa II
[15] = source organism: Entamoeba histolytica HM-1:IMSS

- Kd (HLA-A*02:01 [1]): ≥ 156 µM
Sequence: KLVVVGAGGV

- IC50 (HLA-A*02:01 [2]): 0.0114 µM
Sequence: KMDSFLDMQL

Sequence: KTPWDRFCK
- Kd (HLA-B*44:02): ≥ 20 µM
- Kd (HLA-A*30:01): 0.0218 µM
- Kd (HLA-B*40:01): ≥ 20 µM
- Kd (HLA-B*58:01): ≥ 20 µM
- Kd (HLA-A*26:01 [3]): ≥ 20 µM
- Kd (HLA-A*01:01): ≥ 20 µM
- Kd (HLA-A*24:03): 6.93 µM
- Kd (HLA-B*15:01 [4]): ≥ 20 µM
- Kd (HLA-A*11:01): 0.0641 µM
- Kd (HLA-B*27:05): ≥ 20 µM
- Kd (HLA-B*08:01): ≥ 20 µM
- Kd (HLA-A*02:01 [5]): ≥ 20 µM
- Kd (HLA-A*31:01): 0.0957 µM
- Kd (HLA-A*69:01 [6]): ≥ 20 µM
- Kd (HLA-B*07:02): ≥ 20 µM
- Kd (HLA-A*03:01 [7]): 3.63 µM

Sequence: LELIGNAES
- Kd (HLA-A*02:19; [13]): ≥ 20 µM
- Kd (HLA-B*39:01; [13]): ≥ 20 µM
- Kd (HLA-B*46:01; [13]): ≥ 20 µM
- Kd (HLA-B*15:17): ≥ 20 µM
- Kd (HLA-A*26:01 [8]; [13]): ≥ 20 µM
- Kd (HLA-A*80:01): ≥ 20 µM
- Kd (HLA-A*02:12; [13]): ≥ 20 µM
- Kd (HLA-A*02:11; [13]): ≥ 20 µM
- Kd (HLA-A*25:01): ≥ 20 µM
- Kd (HLA-B*27:03; [13]): ≥ 20 µM
- Kd (HLA-B*57:01; [13]): ≥ 20 µM
- Kd (HLA-B*15:01 [9]): ≥ 20 µM
- Kd (HLA-A*68:02; [13]): ≥ 20 µM
- Kd (HLA-B*51:01): ≥ 20 µM
- Kd (HLA-A*02:01 [10]): ≥ 20 µM
- Kd (HLA-A*02:16): ≥ 20 µM
- Kd (HLA-A*29:02; [13]): ≥ 20 µM
- Kd (HLA-A*02:03): ≥ 20 µM
- Kd (HLA-A*69:01 [11]; [13]): ≥ 20 µM
- Kd (HLA-A*03:01 [12]; [13]): ≥ 20 µM
- Kd (HLA-B*18:01; [13]): 0.921 µM

Sequence: RIYKRSLKL
- Kd (HLA-A*02:19; [14]): ≥ 20 µM
- Kd (HLA-B*39:01; [14]): ≥ 20 µM
- Kd (HLA-B*83:01; [14]): ≥ 5 µM
- Kd (HLA-B*46:01; [14]): ≥ 20 µM
- Kd (HLA-A*26:01 [8]; [14]): ≥ 20 µM
- Kd (HLA-B*45:06; [14]): ≥ 5 µM
- Kd (HLA-A*02:12; [14]): ≥ 20 µM
- Kd (HLA-A*02:11; [14]): ≥ 20 µM
- Kd (HLA-B*27:03; [14]): ≥ 20 µM
- Kd (HLA-B*57:01; [14]): ≥ 20 µM
- Kd (HLA-A*68:02; [14]): ≥ 20 µM
- Kd (HLA-A*03:19): 0.0141 µM
- Kd (HLA-B*27:20): 0.0293 µM
- Kd (HLA-B*15:42; [14]): 2.19 µM
- Kd (HLA-A*29:02; [14]): ≥ 20 µM
- Kd (HLA-A*69:01 [11]; [14]): ≥ 20 µM
- Kd (HLA-A*03:01 [12]; [14]): 0.0189 µM
- Kd (HLA-B*18:01; [14]): ≥ 20 µM

Sequence: YIISTHYQF
- Kd (HLA-B*83:01; [15]): 5.79 µM
- Kd (HLA-B*45:06; [15]): ≥ 5 µM
- Kd (HLA-A*32:15): 0.213 µM
- Kd (HLA-A*68:23): 0.204 µM
- Kd (HLA-B*15:42; [15]): ≥ 5 µM
- Kd (HLA-A*29:02; [15]): 0.0003 µM
- Kd (HLA-C*14:02): 0.158 µM
- Kd (HLA-C*15:02): 1.94 µM
